Measurements as given in article PMC6592559.
Ends that are not written are not given here.

Target: T1, PDF receptor (PDFR), endogenous in the insulin producing cells (Drosophila melanogaster (endogenous in fly brain)) (UniProt Q9W4Y2)
T1 sequence: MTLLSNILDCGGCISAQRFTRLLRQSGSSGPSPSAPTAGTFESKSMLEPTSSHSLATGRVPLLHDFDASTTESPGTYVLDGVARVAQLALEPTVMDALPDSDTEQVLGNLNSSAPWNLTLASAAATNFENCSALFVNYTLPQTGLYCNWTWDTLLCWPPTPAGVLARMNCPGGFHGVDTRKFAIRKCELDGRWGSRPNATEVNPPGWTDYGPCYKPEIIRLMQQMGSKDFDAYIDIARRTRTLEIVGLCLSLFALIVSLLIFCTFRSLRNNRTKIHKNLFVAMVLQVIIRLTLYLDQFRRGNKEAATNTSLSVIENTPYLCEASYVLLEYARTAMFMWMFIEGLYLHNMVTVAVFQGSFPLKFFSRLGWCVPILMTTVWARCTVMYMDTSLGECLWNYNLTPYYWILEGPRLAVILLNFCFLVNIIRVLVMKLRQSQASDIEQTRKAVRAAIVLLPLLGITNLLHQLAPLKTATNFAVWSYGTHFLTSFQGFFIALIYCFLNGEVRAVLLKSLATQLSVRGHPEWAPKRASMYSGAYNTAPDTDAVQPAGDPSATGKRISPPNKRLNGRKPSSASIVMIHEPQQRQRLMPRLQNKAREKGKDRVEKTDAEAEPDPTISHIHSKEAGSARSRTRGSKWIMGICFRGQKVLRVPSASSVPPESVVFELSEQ

B1: Pigment Dispersing Factor (PDF), synthetic peptide (peptide)
peptide: NSELINSLLSLPKNMNDA-NH2
B1 showed a cAMP FRET signal (Epac1camps) in the IPCs of dissected brains, 10 uM PDF bath-applied, 100-1000 s, against the HL3 negative control; no increase in the PDFR-null han mutant of 10%.
